This experiment deals with T1, Patched (Ptc) (Drosophila, UniProt P18502 1-1286).
T1 construct: whole, on cells; Endogenous protein in vivo
T1 sequence (looked up): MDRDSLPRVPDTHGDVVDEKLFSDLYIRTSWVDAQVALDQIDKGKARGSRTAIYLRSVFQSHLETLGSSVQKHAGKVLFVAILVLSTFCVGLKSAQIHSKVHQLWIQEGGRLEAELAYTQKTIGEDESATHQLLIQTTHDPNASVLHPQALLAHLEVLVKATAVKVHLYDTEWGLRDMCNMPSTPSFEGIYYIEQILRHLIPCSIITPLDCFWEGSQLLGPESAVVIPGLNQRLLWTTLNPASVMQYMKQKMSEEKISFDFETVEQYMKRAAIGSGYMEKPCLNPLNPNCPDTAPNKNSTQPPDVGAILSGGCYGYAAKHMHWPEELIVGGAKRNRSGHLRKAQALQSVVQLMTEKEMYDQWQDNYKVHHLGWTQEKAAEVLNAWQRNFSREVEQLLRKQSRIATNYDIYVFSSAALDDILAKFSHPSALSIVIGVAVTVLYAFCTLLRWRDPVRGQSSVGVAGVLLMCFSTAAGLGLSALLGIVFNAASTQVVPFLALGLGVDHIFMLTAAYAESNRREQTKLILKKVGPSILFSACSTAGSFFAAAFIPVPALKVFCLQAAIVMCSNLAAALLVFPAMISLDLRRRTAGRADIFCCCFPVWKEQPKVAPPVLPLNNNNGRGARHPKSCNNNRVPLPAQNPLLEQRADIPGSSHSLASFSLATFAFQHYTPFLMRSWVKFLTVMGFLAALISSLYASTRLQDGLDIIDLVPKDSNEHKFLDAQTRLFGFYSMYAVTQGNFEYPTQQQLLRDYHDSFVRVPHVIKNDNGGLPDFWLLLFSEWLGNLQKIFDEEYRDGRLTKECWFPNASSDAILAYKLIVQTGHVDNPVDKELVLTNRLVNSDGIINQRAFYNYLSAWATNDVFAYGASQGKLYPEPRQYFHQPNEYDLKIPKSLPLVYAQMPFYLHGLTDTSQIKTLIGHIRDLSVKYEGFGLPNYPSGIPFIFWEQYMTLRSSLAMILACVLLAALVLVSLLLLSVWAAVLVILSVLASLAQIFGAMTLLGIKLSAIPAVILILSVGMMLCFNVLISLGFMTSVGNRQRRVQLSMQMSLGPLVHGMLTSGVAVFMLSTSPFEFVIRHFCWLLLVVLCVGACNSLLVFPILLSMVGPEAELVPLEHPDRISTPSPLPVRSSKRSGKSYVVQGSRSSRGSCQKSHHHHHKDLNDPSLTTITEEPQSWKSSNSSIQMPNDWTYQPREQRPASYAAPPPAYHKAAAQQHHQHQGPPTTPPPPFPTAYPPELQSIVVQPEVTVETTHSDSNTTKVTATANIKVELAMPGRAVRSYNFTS
The experiment in a line: in vivo immunostaining of wing imaginal discs (punctuate staining in anterior cells); hh-N^HA under en-Gal4 in hh ts2/ts2 animals at the non-permissive temperature. The source says: Expression of Hh-Nu in P cells of the wing imaginal disc results in dpp-lacZ expression in the entire A compartment of the disc, and a consequent dramatic enlargement of the A compartment. Thus Hh-Nu appears to have a range of action at least five fold larger than that of wild-type Hh. However, since this and previous experiments have been performed in the presence of endogenous Hh, it could not be ruled out that the observed extension of Hh activity depends on, or is even mediated by, endogenous Hh-Np whose range might be expanded in the presence of Hh-Nu. To address this, we created a situation where Hh-Nu is the sole source of Hh in imaginal discs by expressing hh-N^HA in P cells under en-Ga14 in hh^{ts2/ts2} animals that were shifted to the non-permissive temperature during early larval stages. […] Thus Hh-Nu alone is able to associate with Ptc and signal in vivo. The cholesterol anchor of Hh appears to be required for the sequestration of Hh by Ptc, since untethered Hh is seemingly unrestricted in its range. We cannot currently rule out the possibility that Hh-Nu is also, at least partially, sequestered by Ptc but that extracellular Hh-Nu levels are abnormally high and saturate the capacity of Ptc.
hh-temperature sensitive animals were generated using the hh^ts2 allel (Ma et al., 1993) balanced over the TM6b[Tb]balancer. […]

B1: Hh-Nu (cholesterol-free N-terminal portion of Drosophila Hedgehog, product of the hh-N^HA transgene) (ligand, not shown: small tags and cut ends)
chain: not shown
modifications: no C-terminal cholesterol (cholesterol-free)
notes: Expressed in P cells of wing imaginal discs under en-Gal4 in hh ts2/ts2 animals; also called unmodified Hh-Nu; untethered Hh
As for B1, the binding result was “binds”.

These data come from patent US20030165897A1 (published 2003).
